Test results as given in patent US20130157959.

Assays:
[1] = biological target: in vitro translated 35S-labelled mutant p53 K24R, P04637
[2] = biological target: in vitro translated 35S-labelled p53 (wild-type), P04637

B1: GST-Hades Ring protein (RP) (protein)
chain: RLKQMQEEFQEHEAQLLSRAKPEDRESLKSACVVCLSSFKSCVFLECGHVCSCTECYRALPEPKKCPICRQAITRVIPLYN
- in vitro ubiquitination of p53 lysine mutants, immunoblot (mutant p53 6CKR, P04637): Hades was still able to ubiquitinate a form of p53 in which all six lysines was mutated (6CKR)
- in vitro ubiquitination of 35S-labelled p53 K24R, SDS-PAGE and autoradiography [1]: the in vitro translated p53 K24R was not ubiquitinated by Hades
- in vitro ubiquitination of 35S-labeled p53 with E1 and several E2 enzymes, autoradiography [2]: The 35S-labeled p53 was polyubiquitinated in an Ubc5a or Ubc5c-dependent manner
- in vitro ubiquitination of 35S-labelled p53, SDS-PAGE and autoradiography [2]: WT p53 was ubiquitinated by Hades
- in vitro ubiquitination of p53 with E1, E2 (UbcH5c) and His-ubiquitin, anti-p53 immunoblot [2]: The p53 ubiquitination was only induce by Hades
